Results: US20240299584A1, “NON-CODING RNA PROTECTING AGAINST HEART FAILURE” (MEDIZINISCHE HOCHSCHULE HANNOVER, priority 2019, published 2024)

Experiments:
HL-1 cells [1] = assay: mtDNA copy number measurement; assay type: cell-based, mouse; details: doxorubicin 0.25 μM 48 h, circ-Insr by overexpression plasmid
Experimental: Based on the results of the foregoing examples, it was reasoned that circ-Insr could interact with SSBP1. To further confirm the interaction between circ-Insr and SSBP1, siRNA mediated circ-Insr knock-down was applied in HL-1 cells. Next, RNA pulldown was performed with circ-Insr and scramble biotinylated probes. RT-qPCR confirmed that decrease of circ-Insr appeared both in input and circ-Insr pulldown group (FIG. 23A). […] Therefore, we assumed that circ-Insr is a cofactor of SSBP1 resulting in the regulation of mitochondrial function in cardiomyocytes by stabilizing mtDNA. […] Furthermore, mito-damage assay was applied to measure the changes in mitochondrial membrane potential (MMP). […] Next, we co-transfected HL-1 cells with pcDNA-circ-Insr and SSBP1 siRNA and examined cell viability using the WST assay to explore whether SSBP1 participated in the circ-Insr overexpression-mediated therapy of doxorubicin-cardiotoxicity. RT-qPCR indicated SSBP1 siRNA could downregulate endogenous SSBP1 expression (FIG. 23G).
The ratio of mtDNA to genomic DNA was calculated by dividing copies of CYTB with copies of ACTB in each experiment (Li J, Chan M C, Yu Y, Bei Y H, Chen P, Zhou Q L, et al. miR-29b contributes to multiple types of muscle atrophy. Nature communications. 2017; 8). […] Fluorescence was measured during the last step of each cycle using the SYBR channel. […]

apoptotic cardiomyocytes = assay: TUNEL and cardiac troponin T co-staining of heart sections; assay type: in vivo, mouse; details: transversal heart sections, doxorubicin model; circINSR given as AAV9
Experimental: In addition to apoptosis, doxorubicin is known to cause cardiomyocyte atrophy^12 (G). Thus, histopathology analyses were performed on transversal heart section.
Cells were fixed with 4% paraformaldehyde for twenty minutes at room temperature and then permeabilized with ice-cold 0.1% Triton-X-100 in PBS for two minutes at room temperature. Next cells were incubated with enzyme labelling solution provided with In Situ cell death detection kit (Roche) for 1 hour at 37° C. For negative staining, enzyme was not added to the labelling solution. Cells were then washed and incubated with Dapi for 15 minutes. To specifically label neonatal rat cardiomyocytes and hipsc-CM, cells were co-stained with cardiac Troponin T (Thermofisher) after Tunel staining. Images were taken with Nikon Eclipse Ti microscope and images were analyzed with NIS Elements. For analysis in each case, ten different images were analyzed from different regions and average value was taken. Similarly, cryosections of heart were also processed for staining. Numerous images covering complete heart section was taken and Tunel positive nuclei were counted in each field. Average value for each heart was calculated.

HL-1 cells [2] = assay: Annexin V & 7-AAD staining (apoptosis); assay type: cell-based, mouse; details: HL-1 cells treated with doxorubicin 0.25 μM 48 h
Experimental: HL-1 cells were cultured in Claycomb medium together with 10% FBS, norepinephrine, L-Glutamine and pencillin/streptomycin as manufacturer's protocol. 3T3 and RAW264.7 cells were cultured in DMEM with 10% FBS and pencillin/streptomycin. Neonatal rat cardiomyocytes (NRCM) were isolated from one to three-day old rat babies by using the Neonatal Heart Dissociation Kit (Miltenyi). Human iPSC derived cardiomyocytes (hiPSC-cm) were differentiated at the lab of IMTTS. All the cells were treated with 0.25 μM Doxorubicin (Sigma-Aldrich) for 48 hours. circ-Insr siRNA (Eurofins), in vitro circular RNA and overexpression plasmid were transfected with Lipofectamine 2000 (Life Technologies) in OptiMEM medium. NRCM and hipsc-CM were transduced by AAV6 (MOI: 1*10^4) for 72 hours.
FlowCellect Annexin Red kit (Millipore) was used to stain apoptotic cells as per the manufacturer instruction. Briefly, cells were seeded in 12 well plate and next day treated with 0.25 μM Doxorubicin in normal medium with 10% FBS for forty-eight hours. Then cells were trypsinized and harvested and stained with Annexin-V for 15 minutes at 37° C. in 1× assay buffer. Annexin-V stained cells were centrifuged and washed with 1× assay buffer. Next cells were incubated with 7-AAD for 5 minutes and acquired on Guava (Millipore) flow cytometer. Data was analyzed with FLOWJO software.

B1: circINSR: circRNA formed through backsplicing of the second exon of the insulin receptor gene transcript; overexpressed from plasmid or AAV (nucleic acid, listed as Homo sapiens)
chain: UGUGUCCCGGCAUGGAUAUCCGGAACAACCUCACUAGGUUGCAUGAGCUGGAGAAUUGCUCUGUCAUCGAAGGACACUUGCAGAUACUCUUGAUGUUCAAAACGAGGCCCGAAGAUUUCCGAGACCUCAGUUUCCCCAAACUCAUCAUGAUCACUGAUUACUUGCUGCUCUUCCGGGUCUAUGGGCUCGAGAGCCUGAAGGACCUGUUCCCCAACCUCACGGUCAUCCGGGGAUCACGACUGUUCUUUAACUACGCGCUGGUCAUCUUCGAGAUGGUUCACCUCAAGGAACUCGGCCUCUACAACCUGAUGAACAUCACCCGGGGUUCUGUCCGCAUCGAGAAGAACAAUGAGCUCUGUUACUUGGCCACUAUCGACUGGUCCCGUAUCCUGGAUUCCGUGGAGGAUAAUUACAUCGUGUUGAACAAAGAUGACAACGAGGAGUGUGGAGACAUCUGUCCGGGUACCGCGAAGGGCAAGACCAACUGCCCCGCCACCGUCAUCAACGGGCAGUUUGUCGAACGAUGUUGGACUCAUAGUCACUGCCAGAAAG
modifications: circular RNA; RNA sequence
notes: circRNA formed through backsplicing of the second exon of the insulin receptor gene transcript; overexpressed from plasmid or AAV
For B1, the “mtDNA copy number / mtDNA content” value (HL-1 cells [1]) was “reverse the decrease”, the “apoptotic cardiomyocytes (TUNEL / cTNT)” value (apoptotic cardiomyocytes) was “significantly blunted” and the “apoptotic cells (Annexin V)” value (HL-1 cells [2]) was “significantly lower levels of apoptosis”.
